Assays:
[1] = biological target: HCMV gB ectodomain base construct (gB Base) (human cytomegalovirus, Towne strain) (UniProt P13201); assay: SEC; Superose 6 Increase 10/300 GL; 2 mM Tris pH 8.0, 200 mM NaCl, 0.02% sodium azide; LMW peak ~14 mL (trimers), HMW peak ~12 mL (oligomers of trimers)
[2] = biological target: HCMV gB ectodomain base construct (gB Base) (human cytomegalovirus, Towne strain) (UniProt P13201); assay: cryo-EM structure

Question: How did the stoichiometry N [1] turn out when “HCMV gB ectodomain base construct (gB Base) (from UniProt P13201 23-704) (domain or fragment)” was run?
Answer: 3

Question: And the stoichiometry N [2]?
Answer: 3

— paper PMC11406251
